Paper PMC9364715
Like-named read-outs stand apart in the source and are kept apart here.

Columns and labels:
[1] = target: Ad5 hexon with DogTag inserted at HVR5, on Ad-DogTag virions (human adenovirus 5 (Ad5)) (UniProt P04133); experiment: SDS-PAGE gel shift
[2] = target: Ad5 hexon with DogTag inserted at HVR5, on Ad-DogTag virions (human adenovirus 5 (Ad5)) (UniProt P04133); experiment: SDS-PAGE gel shift; remark: listed apart in the source

Substance: DogCatcher-NANP18 (designed binder)
- percent of hexon covalently coupled [1]: > 90 % of hexon
- percent of hexon covalently coupled [2]: > 90 % of hexon

Substance: DogCatcher (designed binder)
- percent of hexon covalently coupled (% of hexon protein) [2]: > 90

Substance: DogCatcher-NANP9 (designed binder)
- percent of hexon covalently coupled [2]: > 90 % of hexon
